From patent US7494647 (Chugai, dated 2009) come the findings set out here.

Positions count from the first letter of the chain named. Like-named read-outs stand apart in the source and are kept apart here.

The target of test [1] is T1, human tissue factor (TF) on human bladder carcinoma cells J82 (human, UniProt P13726 33-295).
T1 construct: whole, on cells; also called the antigen; J82 cells
Nature of the test: cell ELISA on paraformaldehyde-fixed J82 cells; AP-conjugated goat anti-human IgGγ; absorbance 405/655 nm. As for the experimental part: (§1) Cell ELISA plates for measurement of antigen binding were prepared as follows. Cells used were human bladder carcinoma cells J82 (ATCC HTB-1). To 60 wells of a 96-well cell culture plate, 1 ×10^5 J82 cells were inoculated. This was cultured (RPMI1640 medium containing 10% fetal bovine serum (GIBCO)) for one day in a CO_2 incubator to allow the cells to be attached thereto. After discarding the culture liquid, each well was washed twice with 300 μl PBS. 100 μl of PBS containing 4% paraformaldehyde (hereinafter referred to as PFA/PBS) was added to each well, and placed on ice for 10 minutes to immobilize the cells.
(§2) PFA/PBS was discarded, and each well was washed twice with 300 μl of PBS, and then blocked with 250 μl of DB. The culture supernatant or purified antibody was serially diluted with DB, 100 μl of which was added to each well. After incubating at room temperature for 2 hours followed by washing with RB, 100 μl of alkaline phosphatase-conjugated goat anti-human IgGγ antibody (BioSource) diluted 1000-fold with DB was added. After incubating for 1 hour followed by washing with RB, the substrate solution was added, and then absorbance at 405/655 nm was measured using the Microplate Reader (Bio-Rad).
A general note: ELISA stands for enzyme-linked immunosorbent assay.

For test [2], the target named is T1, human tissue factor (TF) on human …. The test is described as above. As for the experimental part:
as §1, §2
The source holds these as a separate data set.

For test [3] the target is unchanged. Described as above. As for the experimental part:
as §1, §2
The source holds these as a separate data set.

The target of test [4] is T2, soluble human TF (human TF 1-219 with the FLAG peptide linked to the C-terminal) (human, UniProt P13726 33-251).
T2 construct: Entry is the whole soluble construct (TF 1-219 followed by FLAG peptide M2); also called soluble TF; shTF
Nature of the test: BIACORE; antibody captured on Protein G chip, soluble TF as analyte; mean ± SD, n = 3. As for the experimental part: Kinetic analysis of the antigen-antibody reaction was carried out using BIACORE. The recombinant Protein G was immobilized on a sensor chip, to which the antibody was coupled. The purified recombinant TF (a soluble TF in which the FLAG peptide was tagged at 1-219) was used as the antigen, and the-soluble TF prepared at various concentrations were used as analytes. From the sensorgram obtained, kinetic parameters (dissociation rate constants kdiss, and binding rate constants kass) were calculated.
As the running buffer, the HBS-EP buffer was used. Ten μl Of […] antibody solution was injected at a flow rate of 20 μl/min to immobilize antibody. The antibody was diluted with the HBS-EP buffer. Forty μl Of the soluble human TF solution at various concentrations were injected at a flow rate of 30 μl/min thereto. In the analysis, 80 seconds for injection was set as the binding phase and then changed to the HBS-EP buffer to set the dissociation phase of 120 seconds. After the dissociation phase was over, 10 μl of 20 mM hydrochloric acid was injected to reconstitute the sensor chip. The binding, dissociation, and reconstitution were set as one cycle, and the sensorgram was obtained for each antibody. The soluble human TF solution was prepared at concentrations of 250 nM, 125 nM, 62.5 nM, 31.3 nM, 15.6 nM, 7.81 nM, and 3.91 nM using the HBS-EP buffer. As the blank, the sensorgram obtained by injecting the HBS-EP buffer used for dilution was used.
The data file of interest was read in, and the comparison of reaction patterns by superscription was made using as the baseline the sensorgram of the HBS-EP buffer. Furthermore, using an analytical application software "BIAevaluation 2.1" (Pharmacia) exclusively for BIACORE that calculates kinetic parameters (binding rate constants kass and dissociation rate constants kdiss) by curve-fitting, kinetic analysis of interaction was performed. In order to determine the binding rate constants kass, the analysis model type 4 was used (BIAevaluation 2.1 Software Hand book, A1-A5). Based on the values calculated from each flow cell, kinetic parameters for each antibody were obtained.
(In general: In SPR one partner is held on a chip, and binding of the other changes the refractive index at the surface.)

The target in a further test is TF/Factor VIIa complex (human, UniProt P13726 33-295; P08709 61-466). Kind of test: cell-based or functional assay.
The target of test [5] is T1, human tissue factor (TF) on human …. Nature of the test: cell ELISA on paraformaldehyde-fixed J82 cells; AP-conjugated goat anti-human IgGγ; absorbance 405/655 nm. As for the experimental part: as §1, §2
This is another data set of the same source.

For test [6] the target is unchanged. The description is as above. As for the experimental part: as §1, §2
This is another data set of the same source.

T1 sequence (P13726 33-295): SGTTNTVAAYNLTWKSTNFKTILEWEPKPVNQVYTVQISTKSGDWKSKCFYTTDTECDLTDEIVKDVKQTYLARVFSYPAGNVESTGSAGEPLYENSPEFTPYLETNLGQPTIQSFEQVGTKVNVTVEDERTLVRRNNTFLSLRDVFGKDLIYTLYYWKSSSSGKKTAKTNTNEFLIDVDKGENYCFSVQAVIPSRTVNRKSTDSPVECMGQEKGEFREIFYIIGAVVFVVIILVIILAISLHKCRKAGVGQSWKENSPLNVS
T2 sequence (P13726 other isoform, or with tags, fused parts or gaps limits assumed): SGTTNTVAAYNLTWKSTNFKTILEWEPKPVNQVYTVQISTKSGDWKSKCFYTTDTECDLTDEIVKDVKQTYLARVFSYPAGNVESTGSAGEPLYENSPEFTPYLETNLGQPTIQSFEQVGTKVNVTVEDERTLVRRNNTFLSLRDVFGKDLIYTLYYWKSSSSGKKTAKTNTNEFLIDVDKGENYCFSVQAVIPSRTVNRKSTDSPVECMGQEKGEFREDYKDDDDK
Sequence of TF/Factor VIIa complex (P13726 33-295 limits assumed, chain 1 of 2): as the sequence (P13726 33-295) above
Sequence of TF/Factor VIIa complex (P08709 61-466 limits assumed, chain 2 of 2): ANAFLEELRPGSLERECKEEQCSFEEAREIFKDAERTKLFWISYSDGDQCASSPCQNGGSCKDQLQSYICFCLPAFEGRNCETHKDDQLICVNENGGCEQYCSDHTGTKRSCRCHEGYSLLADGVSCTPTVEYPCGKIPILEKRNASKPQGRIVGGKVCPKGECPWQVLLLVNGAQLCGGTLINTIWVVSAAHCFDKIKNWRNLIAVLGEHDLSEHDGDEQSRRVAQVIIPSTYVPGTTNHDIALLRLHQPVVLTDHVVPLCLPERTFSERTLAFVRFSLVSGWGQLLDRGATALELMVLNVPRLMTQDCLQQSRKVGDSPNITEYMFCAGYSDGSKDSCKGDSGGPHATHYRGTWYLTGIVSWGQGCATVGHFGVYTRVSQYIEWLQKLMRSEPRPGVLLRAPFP

B1: H chain humanized version b/L chain humanized version a antibody (antibody, IgG4, V domains shown)
VH: QVQLLESGAVLARPGTSVKISCKASGFNIKDYYMHWVKQRPGQGLEWIGGNDPANGHSMYDPKFQGRVTITADTSTNTAYMELSSLRSEDTAIYYCARDSGYAMDYWGQGTLVTVSS
VL: DIQMTQSPSSLSASVGDRVTITCKASQDIKSFLSWYQQKPGKAPKLLIYYATSLADGVPSRFSGSGSGTDFTLTISSLQPEDFATYYCLQHGESPYTFGGGTKVEIK
notes: also called b-a
One may read the EC50 (read off the curve) as the concentration needed to bring the measured effect to its halfway point. Higher therefore signals a need for much substance. For the molecule B1, the “EC50 (read off the curve)” value in test [1] was about 0.1 µg/mL.

B2: H chain humanized version i/L chain chimeric antibody (antibody, IgG4, V domains shown)
VH: B1 VH with N77S, S84R, E89D, I93V
VL: DIKMTQSPSSMYASLGERVTITCKASQDIKSFLSWYQQKPWKSPKTLIYYATSLADGVPSRFSGSGSGQDYSLTINNLESDDTATYYCLQHGESPYTFGGGTKLEIK
notes: L chain V region is that of mouse ATR-5; also called i-ch
Take B2: the binding result in test [1] was “binds”.

B3: H chain humanized version a/L chain humanized version a antibody (antibody, IgG4, V domains shown)
VH: QVQLLESGAVLARPGTSVKISCKASGFNIKDYYMHWVKQRPGQGLEWIGGNDPANGHSMYDPKFQGRAKLTAATSASIAYLEFSSLTNEDSAVYYCARDSGYAMDYWGQGTLVTVSS
VL: B1 VL
B3: in test [2], the “EC50 (read off the curve)” value is about 0.03 µg/mL.

B4: H chain chimeric/L chain humanized version b antibody (antibody, IgG4, V domains shown)
VH: EVQLQQSGTNLVRPGALVKLSCKGSGFNIKDYYMHWVKQRPEQGLEWIGGNDPANGHSMYDPKFQGKASITADTSSNTAYLQLSSLTSEDTAVYFCARDSGYAMDYWGQGTSVTVSS
VL: B1 VL with F71Y
notes: H chain V region is that of mouse ATR-5; also called ch-b
On to B4, for which the “EC50 (read off the curve)” value in test [3] is about 0.08 µg/mL.

B5: H chain humanized version i/L chain humanized version b antibody (antibody, IgG4, V domains shown)
VH: B1 VH with N77S, S84R, E89D, I93V
VL: B1 VL with F71Y
The term Kd denotes a measure of binding affinity in units of concentration. Broadly, the koff is the rate constant with which the complex falls apart. Higher therefore signals a short-lived complex. The term kon denotes the second-order rate constant of association. Higher therefore signals fast association. In the case of B5, in test [4], binding was put at a Kd of 1.39 nM, the koff was 0.000649 s⁻¹ and the kon was 467000 M⁻¹ s⁻¹. Besides, the “IC50 (read off the curve)” value with TF/Factor VIIa complex was about 0.1 µg/mL.

B6: H chain humanized version i/L chain humanized version b2 antibody (antibody, IgG4, V domains shown)
VH: B1 VH with N77S, S84R, E89D, I93V
VL: B1 VL with G41E, L46S, F71Y
notes: also called i-b2; ib2
In test [4], B6 gave a Kd of 1.17 nM, a koff of 0.000635 s⁻¹ and a kon of 544000 M⁻¹ s⁻¹. Moreover, the “IC50 (read off the curve)” value in the test with TF/Factor VIIa complex was about 0.06 µg/mL.

B7: H chain humanized version b/L chain humanized version c antibody (antibody, V domains shown)
VH: B1 VH
VL: B1 VL with F71Y, F83I
notes: also called b-c
As to B7, the “EC50 (read off the curve)” value in test [5] was about 0.05 µg/mL.

B8: H chain chimeric/L chain humanized version b2 antibody (antibody, IgG4, V domains shown)
VH: B4 VH
VL: B1 VL with G41E, L46S, F71Y
notes: H chain V region is that of mouse ATR-5; also called ch-b2
Take B8: the binding result in test [1] is reported as “binds”.

B9: H chain chimeric/L chain humanized version c antibody (antibody, IgG4, V domains shown)
VH: B4 VH
VL: B1 VL with F71Y, F83I
notes: H chain V region is that of mouse ATR-5; also called ch-c
As to B9, in test [3], the “EC50 (read off the curve)” value is about 0.07 µg/mL.

B10: H chain chimeric/L chain humanized version b1 antibody (antibody, IgG4, V domains shown)
VH: B4 VH
VL: B1 VL with Y36F, A43S, L46T, F71Y
notes: H chain V region is that of mouse ATR-5; also called ch-b1
Consider B10, for which the binding result in test [1] is given as “binds”.

B11: H chain chimeric/L chain humanized version a antibody (antibody, IgG4, V domains shown)
VH: B4 VH
VL: B1 VL
notes: H chain V region is that of mouse ATR-5
Take B11: the “EC50 (read off the curve)” value in test [6] was about 0.03 µg/mL.

B12: H chain humanized version i/L chain humanized version b1 antibody (antibody, IgG4, V domains shown)
VH: B1 VH with N77S, S84R, E89D, I93V
VL: B1 VL with Y36F, A43S, L46T, F71Y
notes: also called i-b1
Take B12: in test [1], the binding result is given as “binds”.

B13: H chain humanized version j/L chain humanized version b antibody (antibody, IgG4, V domains shown)
VH: B1 VH with I70F, T76A, S84R, E89A, I93V
VL: B1 VL with F71Y
notes: also called j-b
Regarding B13, in test [1], the binding result was “binds”.

B14: H chain humanized version b/L chain chimeric antibody (antibody, IgG4, V domains shown)
VH: B1 VH
VL: B2 VL
notes: L chain V region is that of mouse ATR-5; also called b-ch
Consider B14, for which the “EC50 (read off the curve)” value in test [1] is about 0.1 µg/mL.

B15: H chain humanized version d/L chain humanized version b antibody (antibody, IgG4, V domains shown)
VH: B1 VH with T74E, N77S, T91S, I93V, Y95F
VL: B1 VL with F71Y
notes: also called d-b
Consider B15, for which the binding result in test [1] is recorded as “binds”.

B16: H chain humanized version j/L chain chimeric antibody (antibody, IgG4, V domains shown)
VH: B1 VH with I70F, T76A, S84R, E89A, I93V
VL: B2 VL
notes: L chain V region is that of mouse ATR-5; also called j-ch
For B16, in test [1], the binding result is “binds”.

B17: H chain humanized version e/L chain chimeric antibody (antibody, IgG4, V domains shown)
VH: B1 VH with T69S, T74E, N77K, T78I, S84N, I93V, Y95F
VL: B2 VL
notes: L chain V region is that of mouse ATR-5; also called e-ch
As for B17, in test [1], the “EC50 (read off the curve)” value is about 0.05 µg/mL.

B18: H chain humanized version d/L chain chimeric antibody (antibody, IgG4, V domains shown)
VH: B1 VH with T74E, N77S, T91S, I93V, Y95F
VL: B2 VL
notes: L chain V region is that of mouse ATR-5; also called d-ch
As for B18, in test [1], the “EC50 (read off the curve)” value was about 0.07 µg/mL.

B19: H chain humanized version g/L chain humanized version b antibody (antibody, IgG4, V domains shown)
VH: B1 VH with R67K, V68A, I70L, T74E, T76S, N77S, E82Q, T91S, I93V, Y95S
VL: B1 VL with F71Y
notes: also called g-b
Regarding B19, in test [1], the “EC50 (read off the curve)” value was about 0.04 µg/mL.

B20: H chain humanized version c/L chain chimeric antibody (antibody, IgG4, V domains shown)
VH: QVQLLESGAVLARPGTSVKISCKASGFNIKDYYMHWVKQRPGQGLEWIGGNDPANGHSMYDPKFQGRVTMLVDTSKNQFSLRLSSVTAADTAVYYCARDSGYAMDYWGQGTLVTVSS
VL: B2 VL
notes: L chain V region is that of mouse ATR-5; also called c-ch
Take B20: in test [1], the “EC50 (read off the curve)” value is about 0.09 µg/mL.
